Assay results taken from PMC4841217, “Structure and stability of recombinant bovine odorant-binding protein: III. Peculiarities of the wild type bOBP unfolding in crowded milieu” (PeerJ, 2016).

Target: the molecule itself
Experiment: intrinsic tryptophan fluorescence (parameter A, fluorescence anisotropy r) with GdnHCl unfolding-refolding curves; recombinant bOBP 0.1-0.2 mg/mL in 20 mM Na-phosphate pH 7.8 with PEG-600, PEG-4000 or PEG-12000 at 80, 150 or 300 mg/mL; incubated at 4 °C, measured at 23 °C; monomer to dimer, inferred from raised anisotropy and sigmoidal unfolding curves

B1: recombinant bovine odorant-binding protein (natural protein)
chain: AQEEEAEQNLSELSGPWRTVYIGSTNPEKIQENGPFRTYFRELVFDDEKGTVDFYFSVKRDGKWKNVHVKATKQDDGTYVADYEGQNVFKIVSLSRTHLVAHNINVDKHGQTTELTELFVKLNVEDEDLEKFWKLTEDKGIDKKNVVNFLENEDHPHPE
notes: Written as the single chain that associates with itself into the domain-swapped dimer; also called bOBP; recombinant bOBP; source: E. coli BL21(DE3), purified (Ni+-agarose, HisGraviTrap columns)
binding result: binds
